Assay: Activity with ONPG, release of o-nitrophenol (ONP) at 405 nm
Type: biochemical
Details: for Time (min) to increase A405 by: 0.025 / Time (min) to increase A405 by: 0.05 / Time (min) to increase A405 by: 0.1 / Time (min) to increase A405 by: 0.2 / Time (min) to increase A405 by: 0.4 / Time (min) to increase A405 by: 0.8 / Time (min) to increase A405 by: 1.6 / Time (min) to increase A405 by: 3.2: Table 8, ONPG 5 mg/ml
Experimental: The activity of HIGAL and MTGAL with ONPG was tested by mixing 200 microliters (normally 5.5 mg/ml) ONPG in 50 mM sodium acetate, 1 mM CaCl2, 0.01% Triton X-100, pH 6.5 with 25 microliters galactanase (normally 1 mg/ml) in the well of a microtiter plate. Release of o-nitrophenol (ONP) was measured at room temperature at 405 nm every 10 seconds normally for 30 min on a SpectraMaxPlus (Molecular Devices). Effects on the observed release of ONP was studied with varied enzyme concentration, ONPG concentration and with addition of galactose (Gal), beta-1,4-galactobiose (Gal2) (Megazyme), beta-1,4-galactotriose (Gal3), beta-1,4-galactotetraose (Gal4), glucose (Glu), arabinose (Ara), galacturonic acid (GalA), maltose (Mal) or maltotriose (Mal3).
In Tables 8-11 below, incubation times required to increase the observed absorbance at 405 nm by given amounts are listed. Cells marked ‘n.r.’ indicate that the increase in absorbance was not reached in the experiment. In general, the initial increase in absorbance at 405 nm was very slow, but after a lag phase the rate of ONP release often increased drastically—often approximately exponentially. The most likely explanation for the observed kinetics is that ONPG reacts with the enzyme to give an enzyme-galactosyl intermediate which hydrolyses very slowly. Instead, the Gal of the intermediate is released by transglycosylation, initially with ONPG or added sugar as acceptor. In cases where the rate of ONP release increases, these transglycosylation products are even better acceptors than the initial ones. […] More likely, Gal inhibits the subsequent transglycosylation, which requires binding of ONPG to the +1 and +2 subsites, e.g., by binding to the +2 subsite. With 50 mg/ml Gal added (results not shown) release of ONP was even slower with only insignificant increase of absorbance at 405 nm in 30 min.

B1: MTGAL: GH Family 53 galactanase from Myceliophthora thermophila, SEQ ID NO: 1 (wild type parent) (protein, listed as Myceliophthora thermophila)
chain: ALTYRGVDWSSVVVEERAGVSYKNTNGNAQPLENILAANGVNTVRQRVWVNPADGNYNLDYNIAIAKRAKAAGLGVYIDFHYSDTWADPAHQTMPAGWPSDIDNLSWKLYNYTLDAANKLQNAGIQPTIVSIGNEIRAGLLWPTGRTENWANIARLLHSAAWGIKDSSLSPKPKIMIHLDNGWDWGTQNWWYTNVLKQGTLELSDFDMMGVSFYPFYSSSATLSALKSSLDNMAKTWNKEIAVVETNWPISCPNPRYSFPSDVKNIPFSPEGQTTFITNVANIVSSVSRGVGLFYWEPAWIHNANLGSSCADNTMFSQSGQALSSLSVFQRI
modifications: mat_peptide (1)..()
- Slowing of ONP release by addition of Gal (Gal 5 mg/ml): about a factor of two
- Time (min) to increase A405 by: 0.025 (enzyme 28 μg/ml, no sugar): 40.4 min
- Time (min) to increase A405 by: 0.05 (enzyme 28 μg/ml, no sugar): n.r.
- Time (min) to increase A405 by: 0.1 (enzyme 28 μg/ml, no sugar): n.r.
- Time (min) to increase A405 by: 0.2 (enzyme 28 μg/ml, no sugar): n.r.
- Time (min) to increase A405 by: 0.4 (enzyme 28 μg/ml, no sugar): n.r.
- Time (min) to increase A405 by: 0.8 (enzyme 28 μg/ml, no sugar): n.r.
- Time (min) to increase A405 by: 1.6 (enzyme 28 μg/ml, no sugar): n.r.
- Time (min) to increase A405 by: 3.2 (enzyme 28 μg/ml, no sugar): n.r.
- Time (min) to increase A405 by: 0.025 (enzyme 55 μg/ml, Gal 5 mg/ml): 40.2 min
- Time (min) to increase A405 by: 0.05 (enzyme 55 μg/ml, Gal 5 mg/ml): n.r.
- Time (min) to increase A405 by: 0.1 (enzyme 55 μg/ml, Gal 5 mg/ml): n.r.
- Time (min) to increase A405 by: 0.2 (enzyme 55 μg/ml, Gal 5 mg/ml): n.r.
- Time (min) to increase A405 by: 0.4 (enzyme 55 μg/ml, Gal 5 mg/ml): n.r.
- Time (min) to increase A405 by: 0.8 (enzyme 55 μg/ml, Gal 5 mg/ml): n.r.
- Time (min) to increase A405 by: 1.6 (enzyme 55 μg/ml, Gal 5 mg/ml): n.r.
- Time (min) to increase A405 by: 3.2 (enzyme 55 μg/ml, Gal 5 mg/ml): n.r.
- Time (min) to increase A405 by: 0.025 (enzyme 55 μg/ml, no sugar): 29.9 min
- Time (min) to increase A405 by: 0.05 (enzyme 55 μg/ml, no sugar): 42.5 min
- Time (min) to increase A405 by: 0.1 (enzyme 55 μg/ml, no sugar): 54.5 min
- Time (min) to increase A405 by: 0.2 (enzyme 55 μg/ml, no sugar): n.r.
- Time (min) to increase A405 by: 0.4 (enzyme 55 μg/ml, no sugar): n.r.
- Time (min) to increase A405 by: 0.8 (enzyme 55 μg/ml, no sugar): n.r.
- Time (min) to increase A405 by: 1.6 (enzyme 55 μg/ml, no sugar): n.r.
- Time (min) to increase A405 by: 3.2 (enzyme 55 μg/ml, no sugar): n.r.
- Time (min) to increase A405 by: 0.025 (enzyme 110 μg/ml, Gal 5 mg/ml): 26.9 min
- Time (min) to increase A405 by: 0.05 (enzyme 110 μg/ml, Gal 5 mg/ml): 44.5 min
- Time (min) to increase A405 by: 0.1 (enzyme 110 μg/ml, Gal 5 mg/ml): n.r.
- Time (min) to increase A405 by: 0.2 (enzyme 110 μg/ml, Gal 5 mg/ml): n.r.
- Time (min) to increase A405 by: 0.4 (enzyme 110 μg/ml, Gal 5 mg/ml): n.r.
- Time (min) to increase A405 by: 0.8 (enzyme 110 μg/ml, Gal 5 mg/ml): n.r.
- Time (min) to increase A405 by: 1.6 (enzyme 110 μg/ml, Gal 5 mg/ml): n.r.
- Time (min) to increase A405 by: 3.2 (enzyme 110 μg/ml, Gal 5 mg/ml): n.r.
- Time (min) to increase A405 by: 0.025 (enzyme 110 μg/ml, no sugar): 14.0 min
- Time (min) to increase A405 by: 0.05 (enzyme 110 μg/ml, no sugar): 20.5 min
- Time (min) to increase A405 by: 0.1 (enzyme 110 μg/ml, no sugar): 26.4 min
- Time (min) to increase A405 by: 0.2 (enzyme 110 μg/ml, no sugar): 31.4 min
- Time (min) to increase A405 by: 0.4 (enzyme 110 μg/ml, no sugar): 34.5 min
- Time (min) to increase A405 by: 0.8 (enzyme 110 μg/ml, no sugar): 39.2 min
- Time (min) to increase A405 by: 1.6 (enzyme 110 μg/ml, no sugar): 43.9 min
- Time (min) to increase A405 by: 3.2 (enzyme 110 μg/ml, no sugar): 46.7 min

Source: US8367390B2, “Galactanase variants” (Novozymes A/S, priority 2002, dated 2013)
